# Laboratory results taken from PMC3686109.
# Target: streptavidin (UniProt P22629 25-183)
# Experiment: aptamer microarray
# streptavidin, sequence (P22629 25-183): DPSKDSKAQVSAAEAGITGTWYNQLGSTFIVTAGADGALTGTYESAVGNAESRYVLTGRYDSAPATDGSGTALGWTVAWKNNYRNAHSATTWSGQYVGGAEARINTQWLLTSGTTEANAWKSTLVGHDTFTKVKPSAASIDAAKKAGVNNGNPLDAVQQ
binder,measurement,value
ATTGACCGCTGTGTGACGCAACACTCAATTTTTTTTTTTT (structured_DNA) [St-2-1_T11],binding result,binds
